The source of these data is PMC9569990 (International Journal of Molecular Sciences, 2022).

What all share (assay): SPR; cytokine immobilised on ProteOn GLH sensor chip by amine coupling (9,000-14,000 RU); S100P (wild type or mutant) as analyte, 62 nM-16 µM; 25 °C; 10 mM HEPES, 150 mM NaCl, 1 mM CaCl2, 0.05% TWEEN 20, pH 7.4; heterogeneous ligand model (two ligand populations), one-site model for IL-13; values averaged over analyte concentrations (n = 3-5)
What all share (conditions): both partners purified
(In SPR one partner is held on a chip, and binding of the other changes the refractive index at the surface.)

One assay concerns the target T1, Interleukin-31 (human, UniProt Q6EBC2 24-164).
T1 construct: Interleukin-31, human, UniProt Q6EBC2; see the manufacturer's catalogue number; also called IL-31; source: bought: PeproTech (source E. coli)
T1 sequence (looked up): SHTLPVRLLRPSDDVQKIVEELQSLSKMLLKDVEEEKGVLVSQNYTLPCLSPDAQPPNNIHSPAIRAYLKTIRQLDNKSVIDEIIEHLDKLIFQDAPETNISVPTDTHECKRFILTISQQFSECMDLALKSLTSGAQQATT

In the next assay the target is T2, Somatotropin (human, UniProt P01241 27-217).
T2 construct: Somatotropin (growth hormone), human, UniProt P01241; see the manufacturer's catalogue number; also called GH; growth hormone; source: bought: PeproTech (source E. coli)

The next assay addresses T3, Growth hormone variant (human, UniProt P01242 27-217).
T3 construct: Growth hormone variant, human, UniProt P01242; see the manufacturer's catalogue number; also called GH-V; source: bought: R&D Systems (source E. coli)

The next assay addresses T4, Prolactin (human, UniProt P01236 29-227).
T4 construct: Prolactin, human, UniProt P01236; see the manufacturer's catalogue number; also called PRL; source: bought: PeproTech (source E. coli)
T4 sequence (looked up): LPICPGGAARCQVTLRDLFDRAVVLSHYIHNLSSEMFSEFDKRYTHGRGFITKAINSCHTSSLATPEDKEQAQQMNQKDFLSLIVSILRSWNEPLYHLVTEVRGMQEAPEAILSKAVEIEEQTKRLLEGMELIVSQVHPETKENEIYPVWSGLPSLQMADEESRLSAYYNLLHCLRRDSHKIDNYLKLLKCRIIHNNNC

The next assay addresses T5, Leptin (human, UniProt P41159 22-167).
T5 construct: Leptin, human, UniProt P41159; see the manufacturer's catalogue number; source: bought: PeproTech (source E. coli)

In the next assay the target is T6, Interleukin-10 (human, UniProt P22301 19-178).
T6 construct: Interleukin-10, human, UniProt P22301; see the manufacturer's catalogue number; also called IL-10; source: bought: PeproTech (source E. coli)

For the next assay, the target named is T7, Interleukin-13 (human, UniProt P35225 25-146).
T7 construct: Interleukin-13, human, UniProt P35225; see the manufacturer's catalogue number; also called IL-13; source: bought: PeproTech (source E. coli)

Another assay has as its target T8, Interleukin-15 (human, UniProt P40933 49-162).
T8 construct: Interleukin-15, human, UniProt P40933; see the manufacturer's catalogue number; also called IL-15; source: bought: PeproTech (source E. coli)

Bounds are passed on as bounds.

T5 sequence (P41159 22-167): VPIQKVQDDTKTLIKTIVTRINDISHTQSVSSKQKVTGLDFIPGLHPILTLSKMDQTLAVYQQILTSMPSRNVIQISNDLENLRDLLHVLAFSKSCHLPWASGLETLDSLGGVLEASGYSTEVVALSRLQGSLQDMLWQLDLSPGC
T6 sequence (P22301 19-178): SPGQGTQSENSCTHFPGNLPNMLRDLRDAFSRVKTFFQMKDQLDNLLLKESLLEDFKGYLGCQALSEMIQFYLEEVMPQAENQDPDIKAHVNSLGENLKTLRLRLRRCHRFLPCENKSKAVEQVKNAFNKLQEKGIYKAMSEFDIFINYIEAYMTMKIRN
T8 sequence (P40933 49-162): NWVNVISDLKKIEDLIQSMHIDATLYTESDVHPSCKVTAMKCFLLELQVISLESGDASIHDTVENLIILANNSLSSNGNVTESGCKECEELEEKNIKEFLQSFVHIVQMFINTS
T2 sequence (P01241 27-217): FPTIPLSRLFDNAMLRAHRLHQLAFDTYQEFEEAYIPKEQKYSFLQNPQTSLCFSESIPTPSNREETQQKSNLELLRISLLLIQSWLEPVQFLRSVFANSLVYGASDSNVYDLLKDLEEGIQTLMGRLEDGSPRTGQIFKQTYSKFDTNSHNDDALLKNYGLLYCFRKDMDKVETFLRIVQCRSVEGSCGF
T3 sequence (P01242 27-217, change not shown): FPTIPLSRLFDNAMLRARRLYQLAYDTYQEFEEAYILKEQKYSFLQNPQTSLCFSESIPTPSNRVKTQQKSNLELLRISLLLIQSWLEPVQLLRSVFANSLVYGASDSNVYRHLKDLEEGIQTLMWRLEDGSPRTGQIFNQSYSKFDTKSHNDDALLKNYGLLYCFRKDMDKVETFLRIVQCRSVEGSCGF
T7 sequence (P35225 25-146): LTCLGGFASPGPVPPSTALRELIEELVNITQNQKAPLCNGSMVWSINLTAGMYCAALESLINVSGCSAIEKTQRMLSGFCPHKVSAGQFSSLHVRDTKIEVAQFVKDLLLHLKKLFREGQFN

B1: Human S100P mutant Δ42–47 (lacks PGFLQS sequence in the 'hinge') (natural protein)
chain: MTELETAMGMIIDVFSRYSGSEGSTQTLTKGELKVLMEKELGKDKDAVDKLLKDLDANGDAQVDFSEFIVFVAAITSACHKYFEKAGLK
notes: S100P protein, human, recombinant, with residues 42-47 (PGFLQS) deleted; source: E. coli, prepared as previously described [28]
In general, Kd refers to a measure of binding affinity in units of concentration. In the case of B1, the Kd with Interleukin-31, in the assay with Somatotropin, with Growth hormone variant, with Prolactin, with Leptin and with Interleukin-10 was over 100 µM each time. The Kd with Interleukin-13 and in the assay with Interleukin-15 was over 100 µM in each case.

B2: Human S100P mutant F89A (natural protein)
chain: MTELETAMGMIIDVFSRYSGSEGSTQTLTKGELKVLMEKELPGFLQSGKDKDAVDKLLKDLDANGDAQVDFSEFIVFVAAITSACHKYAEKAGLK
notes: S100P protein, human, recombinant, with F89A; source: E. coli, prepared as previously described [28]
Regarding B2, the “Kd1 (heterogeneous ligand model, population 1)” value in the assay with Interleukin-31 worked out at 202 nM; with Somatotropin it was 29.2 µM; with Prolactin, 689 nM; with Leptin it was 4.37 µM; with Interleukin-10 it was 4.74 µM; in the assay with Interleukin-15 it was 157 nM. For the same molecule, the “Kd2 (heterogeneous ligand model, population 2; column head printed as Kd1)” value with Interleukin-31 was 1.18 µM; in the assay with Somatotropin it was 138 µM; with Prolactin it was 3.12 µM; in the assay with Leptin, 35.7 µM; with Interleukin-10, 6.05 µM; with Interleukin-15 it was 283 nM. The Kd in the assay with Growth hormone variant and in the assay with Interleukin-13 was over 100 µM each time.
